This is an account of results in patent US20240018502A1.

The chains are these.
B1: Q38Y/I41S/D60bT/F60eR/Y60gW/D96M/F97N/T98G/F99L/C122S/G151N/Q175L (enzyme)
chain: VVGGTDADEGEWPWQVSLHALGYGHSCGASLISPNWLVSAAHCYIDTRGRRWSDPTQWTAFLGLHDQSQRSAPGVQERRLKRIISHPFFNMNGLDYDIALLELEKPAEYSSMVRPISLPDASHVFPAGKAIWVTGWGHTQYGGTNALILQKGEIRVINQTTCENLLPQLITPRMMCVGFLSGGVDSCQGDSGGPLSSVEADGRIFQAGVVSWGDGCAQRNKPGVYTRLPLFRDWIKENTGV
B2: Q38G/H40R/I41H/D60bN/F97D/F99L/C122S/Q175L/Q192G (enzyme)
chain: VVGGTDADEGEWPWQVSLHALGGGRHCGASLISPNWLVSAAHCYIDNRGFRYSDPTQWTAFLGLHDQSQRSAPGVQERRLKRIISHPFFNDDTLDYDIALLELEKPAEYSSMVRPISLPDASHVFPAGKAIWVTGWGHTQYGGTGALILQKGEIRVINQTTCENLLPQLITPRMMCVGFLSGGVDSCGGDSGGPLSSVEADGRIFQAGVVSWGDGCAQRNKPGVYTRLPLFRDWIKENTGV
B3: Q38H/I41A/D60bV/F60eR/Y60gW/D96P/ins97aN/F97W/T98G/F99L/C122S/G151H/Q175L/Q192E (enzyme)
chain: VVGGTDADEGEWPWQVSLHALGHGHACGASLISPNWLVSAAHCYIDVRGRRWSDPTQWTAFLGLHDQSQRSAPGVQERRLKRIISHPFFNPWNGLDYDIALLELEKPAEYSSMVRPISLPDASHVFPAGKAIWVTGWGHTQYGGTHALILQKGEIRVINQTTCENLLPQLITPRMMCVGFLSGGVDSCEGDSGGPLSSVEADGRIFQAGVVSWGDGCAQRNKPGVYTRLPLFRDWIKENTGV
B4: ins97aA/F97G/T98L/C122S/Q175M/Q192A/D217I/K224R (enzyme)
chain: VVGGTDADEGEWPWQVSLHALGQGHICGASLISPNWLVSAAHCYIDDRGFRYSDPTQWTAFLGLHDQSQRSAPGVQERRLKRIISHPFFNDGALFDYDIALLELEKPAEYSSMVRPISLPDASHVFPAGKAIWVTGWGHTQYGGTGALILQKGEIRVINQTTCENLLPQMITPRMMCVGFLSGGVDSCAGDSGGPLSSVEADGRIFQAGVVSWGIGCAQRNRPGVYTRLPLFRDWIKENTGV
B5: MTSP-1 H40K/I41M/Y60gG/F97D/F99L/C122S/G151N/Q175R/Q192R/D217V/K224S (enzyme)
chain: VVGGTDADEGEWPWQVSLHALGQGKMCGASLISPNWLVSAAHCYIDDRGFRGSDPTQWTAFLGLHDQSQRSAPGVQERRLKRIISHPFFNDDTLDYDIALLELEKPAEYSSMVRPISLPDASHVFPAGKAIWVTGWGHTQYGGTNALILQKGEIRVINQTTCENLLPQRITPRMMCVGFLSGGVDSCRGDSGGPLSSVEADGRIFQAGVVSWGVGCAQRNSPGVYTRLPLFRDWIKENTGV
B6: MTSP-1 H40R/I41H/Y60gN/F97D/F99L/C122S/G151N/Q175K/Q192S/D217S/K224L (enzyme)
chain: VVGGTDADEGEWPWQVSLHALGQGRHCGASLISPNWLVSAAHCYIDDRGFRNSDPTQWTAFLGLHDQSQRSAPGVQERRLKRIISHPFFNDDTLDYDIALLELEKPAEYSSMVRPISLPDASHVFPAGKAIWVTGWGHTQYGGTNALILQKGEIRVINQTTCENLLPQKITPRMMCVGFLSGGVDSCSGDSGGPLSSVEADGRIFQAGVVSWGSGCAQRNLPGVYTRLPLFRDWIKENTGV
B7: MTSP-1 H40R/I41H/Y60gF/F97D/F99L/C122S/Q192G/D217R/K224A (enzyme)
chain: VVGGTDADEGEWPWQVSLHALGQGRHCGASLISPNWLVSAAHCYIDDRGFRFSDPTQWTAFLGLHDQSQRSAPGVQERRLKRIISHPFFNDDTLDYDIALLELEKPAEYSSMVRPISLPDASHVFPAGKAIWVTGWGHTQYGGTGALILQKGEIRVINQTTCENLLPQQITPRMMCVGFLSGGVDSCGGDSGGPLSSVEADGRIFQAGVVSWGRGCAQRNAPGVYTRLPLFRDWIKENTGV
B8: MTSP-1 H40R/I41H/F97D/F99L/C122S/Q175L/Q192G/D217K/K224A (enzyme)
chain: VVGGTDADEGEWPWQVSLHALGQGRHCGASLISPNWLVSAAHCYIDDRGFRYSDPTQWTAFLGLHDQSQRSAPGVQERRLKRIISHPFFNDDTLDYDIALLELEKPAEYSSMVRPISLPDASHVFPAGKAIWVTGWGHTQYGGTGALILQKGEIRVINQTTCENLLPQLITPRMMCVGFLSGGVDSCGGDSGGPLSSVEADGRIFQAGVVSWGKGCAQRNAPGVYTRLPLFRDWIKENTGV
B9: MTSP-1 H40R/I41H/Y60gF/F97D/F99L/C122S/Q175M/Q192G/D217W/K224R (enzyme)
chain: VVGGTDADEGEWPWQVSLHALGQGRHCGASLISPNWLVSAAHCYIDDRGFRFSDPTQWTAFLGLHDQSQRSAPGVQERRLKRIISHPFFNDDTLDYDIALLELEKPAEYSSMVRPISLPDASHVFPAGKAIWVTGWGHTQYGGTGALILQKGEIRVINQTTCENLLPQMITPRMMCVGFLSGGVDSCGGDSGGPLSSVEADGRIFQAGVVSWGWGCAQRNRPGVYTRLPLFRDWIKENTGV
B10: MTSP-1 H40R/I41H/F97D/F99L/C122S/G151D/Q175M/Q192G/D217V (enzyme)
chain: VVGGTDADEGEWPWQVSLHALGQGRHCGASLISPNWLVSAAHCYIDDRGFRYSDPTQWTAFLGLHDQSQRSAPGVQERRLKRIISHPFFNDDTLDYDIALLELEKPAEYSSMVRPISLPDASHVFPAGKAIWVTGWGHTQYGGTDALILQKGEIRVINQTTCENLLPQMITPRMMCVGFLSGGVDSCGGDSGGPLSSVEADGRIFQAGVVSWGVGCAQRNKPGVYTRLPLFRDWIKENTGV
B11: MTSP-1 H40R/I41H/F97D/F99L/C122S/Q175M/Q192G/D217S (enzyme)
chain: VVGGTDADEGEWPWQVSLHALGQGRHCGASLISPNWLVSAAHCYIDDRGFRYSDPTQWTAFLGLHDQSQRSAPGVQERRLKRIISHPFFNDDTLDYDIALLELEKPAEYSSMVRPISLPDASHVFPAGKAIWVTGWGHTQYGGTGALILQKGEIRVINQTTCENLLPQMITPRMMCVGFLSGGVDSCGGDSGGPLSSVEADGRIFQAGVVSWGSGCAQRNKPGVYTRLPLFRDWIKENTGV
B12: MTSP-1 H40R/I41H/F97D/F99L/C122S/Q175M/Q192G/D217V/K224Y (enzyme)
chain: VVGGTDADEGEWPWQVSLHALGQGRHCGASLISPNWLVSAAHCYIDDRGFRYSDPTQWTAFLGLHDQSQRSAPGVQERRLKRIISHPFFNDDTLDYDIALLELEKPAEYSSMVRPISLPDASHVFPAGKAIWVTGWGHTQYGGTGALILQKGEIRVINQTTCENLLPQMITPRMMCVGFLSGGVDSCGGDSGGPLSSVEADGRIFQAGVVSWGVGCAQRNYPGVYTRLPLFRDWIKENTGV
B13: MTSP-1 H40R/I41H/F97D/F99L/C122S/Q175K/Q192G/D217I/K224H (enzyme)
chain: VVGGTDADEGEWPWQVSLHALGQGRHCGASLISPNWLVSAAHCYIDDRGFRYSDPTQWTAFLGLHDQSQRSAPGVQERRLKRIISHPFFNDDTLDYDIALLELEKPAEYSSMVRPISLPDASHVFPAGKAIWVTGWGHTQYGGTGALILQKGEIRVINQTTCENLLPQKITPRMMCVGFLSGGVDSCGGDSGGPLSSVEADGRIFQAGVVSWGIGCAQRNHPGVYTRLPLFRDWIKENTGV
B14: MTSP-1 H40R/I41H/Y60gH/F97D/F99L/C122S/Q175M/Q192G/D217I/K224L (enzyme)
chain: VVGGTDADEGEWPWQVSLHALGQGRHCGASLISPNWLVSAAHCYIDDRGFRHSDPTQWTAFLGLHDQSQRSAPGVQERRLKRIISHPFFNDDTLDYDIALLELEKPAEYSSMVRPISLPDASHVFPAGKAIWVTGWGHTQYGGTGALILQKGEIRVINQTTCENLLPQMITPRMMCVGFLSGGVDSCGGDSGGPLSSVEADGRIFQAGVVSWGIGCAQRNLPGVYTRLPLFRDWIKENTGV
B15: MTSP-1 H40R/I41H/F97D/C122S/G151N/Q175M/Q192A/D217S/K224R (enzyme)
chain: VVGGTDADEGEWPWQVSLHALGQGRHCGASLISPNWLVSAAHCYIDDRGFRYSDPTQWTAFLGLHDQSQRSAPGVQERRLKRIISHPFFNDDTFDYDIALLELEKPAEYSSMVRPISLPDASHVFPAGKAIWVTGWGHTQYGGTNALILQKGEIRVINQTTCENLLPQMITPRMMCVGFLSGGVDSCAGDSGGPLSSVEADGRIFQAGVVSWGSGCAQRNRPGVYTRLPLFRDWIKENTGV
B16: MTSP-1 H40K/I41L/Y60gF/F97D/F99L/C122S/G151N/Q175R (enzyme)
chain: VVGGTDADEGEWPWQVSLHALGQGKLCGASLISPNWLVSAAHCYIDDRGFRFSDPTQWTAFLGLHDQSQRSAPGVQERRLKRIISHPFFNDDTLDYDIALLELEKPAEYSSMVRPISLPDASHVFPAGKAIWVTGWGHTQYGGTNALILQKGEIRVINQTTCENLLPQRITPRMMCVGFLSGGVDSCQGDSGGPLSSVEADGRIFQAGVVSWGDGCAQRNKPGVYTRLPLFRDWIKENTGV
B17: MTSP-1 H40K/I41M/Y60gF/F97D/F99L/C122S/G151N/Q175L/Q192D (enzyme)
chain: VVGGTDADEGEWPWQVSLHALGQGKMCGASLISPNWLVSAAHCYIDDRGFRFSDPTQWTAFLGLHDQSQRSAPGVQERRLKRIISHPFFNDDTLDYDIALLELEKPAEYSSMVRPISLPDASHVFPAGKAIWVTGWGHTQYGGTNALILQKGEIRVINQTTCENLLPQLITPRMMCVGFLSGGVDSCDGDSGGPLSSVEADGRIFQAGVVSWGDGCAQRNKPGVYTRLPLFRDWIKENTGV
B18: MTSP-1 H40R/I41H/Y60gL/F97D/F99L/C122S/G151N (enzyme)
chain: VVGGTDADEGEWPWQVSLHALGQGRHCGASLISPNWLVSAAHCYIDDRGFRLSDPTQWTAFLGLHDQSQRSAPGVQERRLKRIISHPFFNDDTLDYDIALLELEKPAEYSSMVRPISLPDASHVFPAGKAIWVTGWGHTQYGGTNALILQKGEIRVINQTTCENLLPQQITPRMMCVGFLSGGVDSCQGDSGGPLSSVEADGRIFQAGVVSWGDGCAQRNKPGVYTRLPLFRDWIKENTGV
B19: MTSP-1 H40R/I41H/Y60gF/F97D/F99L/C122S/Q192G/D217M/K224R (enzyme)
chain: VVGGTDADEGEWPWQVSLHALGQGRHCGASLISPNWLVSAAHCYIDDRGFRFSDPTQWTAFLGLHDQSQRSAPGVQERRLKRIISHPFFNDDTLDYDIALLELEKPAEYSSMVRPISLPDASHVFPAGKAIWVTGWGHTQYGGTGALILQKGEIRVINQTTCENLLPQQITPRMMCVGFLSGGVDSCGGDSGGPLSSVEADGRIFQAGVVSWGMGCAQRNRPGVYTRLPLFRDWIKENTGV
B20: MTSP-1 H40R/I41H/Y60gH/F97D/F99L/C122S/Q175M/Q192G/D217I/K224R (enzyme)
chain: VVGGTDADEGEWPWQVSLHALGQGRHCGASLISPNWLVSAAHCYIDDRGFRHSDPTQWTAFLGLHDQSQRSAPGVQERRLKRIISHPFFNDDTLDYDIALLELEKPAEYSSMVRPISLPDASHVFPAGKAIWVTGWGHTQYGGTGALILQKGEIRVINQTTCENLLPQMITPRMMCVGFLSGGVDSCGGDSGGPLSSVEADGRIFQAGVVSWGIGCAQRNRPGVYTRLPLFRDWIKENTGV

Chain of human complement protein C3 (human) (P01024 23-667, chain 1 of 2): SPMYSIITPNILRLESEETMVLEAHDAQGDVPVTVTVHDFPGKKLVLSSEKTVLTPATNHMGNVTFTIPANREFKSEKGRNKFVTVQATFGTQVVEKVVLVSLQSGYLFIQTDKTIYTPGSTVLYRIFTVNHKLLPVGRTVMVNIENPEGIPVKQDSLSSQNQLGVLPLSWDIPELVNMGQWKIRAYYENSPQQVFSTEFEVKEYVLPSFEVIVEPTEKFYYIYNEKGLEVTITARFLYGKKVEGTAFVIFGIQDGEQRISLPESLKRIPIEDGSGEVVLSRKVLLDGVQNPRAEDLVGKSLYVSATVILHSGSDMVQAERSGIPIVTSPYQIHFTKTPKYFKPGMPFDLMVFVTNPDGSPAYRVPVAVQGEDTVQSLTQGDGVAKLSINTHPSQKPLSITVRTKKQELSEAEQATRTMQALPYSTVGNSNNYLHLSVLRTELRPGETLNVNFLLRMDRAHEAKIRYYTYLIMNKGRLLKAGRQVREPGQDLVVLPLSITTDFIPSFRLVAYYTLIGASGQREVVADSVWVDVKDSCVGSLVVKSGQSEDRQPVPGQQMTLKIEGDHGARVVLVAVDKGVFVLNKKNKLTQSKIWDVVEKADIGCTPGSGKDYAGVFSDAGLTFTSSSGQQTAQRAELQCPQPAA
Chain of human complement protein C3 (human) (P01024 672-1663, chain 2 of 2): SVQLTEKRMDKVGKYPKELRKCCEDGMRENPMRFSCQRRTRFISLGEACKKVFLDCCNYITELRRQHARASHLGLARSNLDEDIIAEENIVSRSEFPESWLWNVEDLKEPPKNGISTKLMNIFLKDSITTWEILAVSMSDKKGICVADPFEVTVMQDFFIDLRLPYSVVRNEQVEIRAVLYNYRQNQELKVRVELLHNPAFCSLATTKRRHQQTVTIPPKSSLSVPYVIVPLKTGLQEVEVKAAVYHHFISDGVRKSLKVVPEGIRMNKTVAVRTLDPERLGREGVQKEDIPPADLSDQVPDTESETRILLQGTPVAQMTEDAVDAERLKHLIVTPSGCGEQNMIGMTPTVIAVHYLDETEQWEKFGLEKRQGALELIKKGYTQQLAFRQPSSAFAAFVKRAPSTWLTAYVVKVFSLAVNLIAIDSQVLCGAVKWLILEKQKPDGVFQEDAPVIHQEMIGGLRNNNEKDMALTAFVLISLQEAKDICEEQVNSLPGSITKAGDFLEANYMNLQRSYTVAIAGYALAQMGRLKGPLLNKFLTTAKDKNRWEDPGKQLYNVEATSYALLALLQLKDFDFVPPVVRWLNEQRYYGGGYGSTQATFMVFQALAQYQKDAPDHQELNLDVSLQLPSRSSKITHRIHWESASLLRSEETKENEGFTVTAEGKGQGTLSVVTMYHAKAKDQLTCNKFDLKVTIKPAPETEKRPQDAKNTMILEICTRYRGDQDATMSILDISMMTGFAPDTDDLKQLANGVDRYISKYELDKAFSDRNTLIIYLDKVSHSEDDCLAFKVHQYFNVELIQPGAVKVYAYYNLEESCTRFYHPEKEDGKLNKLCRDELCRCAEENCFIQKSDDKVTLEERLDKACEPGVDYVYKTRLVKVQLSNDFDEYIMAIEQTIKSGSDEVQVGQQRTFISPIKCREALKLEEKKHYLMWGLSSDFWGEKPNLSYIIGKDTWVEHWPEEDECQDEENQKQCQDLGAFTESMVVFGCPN

One experiment has as its target human complement protein C3 (human) (UniProt P01024). Put plainly: cell-based or functional assay.
B1: the EC50 (nM), cleavage of purified hC3 in vitro amounted to 1.08 nM.
Molecule B2 came in with an EC50 (nM), cleavage of purified hC3 in vitro of 0.867 nM.
On the same count and under the same terms, to B3 belongs 1.11 nM.
On the same count and under the same terms, to B4 belongs 0.866 nM.

The target in a further experiment is plasma purified human complement protein C3 (human) (UniProt P01024). The experiment in a line: cell-based or functional assay.
Chain of plasma purified human complement protein C3 (human) (P01024 23-667, chain 1 of 2): as the sequence (P01024 23-667, chain 1 of 2) above
Chain of plasma purified human complement protein C3 (human) (P01024 672-1663, chain 2 of 2): as the sequence (P01024 672-1663, chain 2 of 2) above
The molecule B5 registered an EC50 of hC3 cleavage of 509 nM.
Molecule B6 had an EC50 of hC3 cleavage of 187 nM.
Molecule B7 came in with an EC50 of hC3 cleavage of 25.9 nM.
Same read-out and setting: next, B8: 14.1 nM.
B9 displayed an EC50 of hC3 cleavage of 9.92 nM.
Molecule B10 had an EC50 of hC3 cleavage of 70.8 nM.
Same read-out and setting: to B11 belongs 24.4 nM; to B12, 2.76 nM; to B13, 19.4 nM.
B14 registered an EC50 of hC3 cleavage of 3.72 nM.
Still for that read-out and setting: next, B15: 470 nM; B16: 237 nM; B17: 589 nM.
Regarding B18, the EC50 of hC3 cleavage came to 54.9 nM.
The same measure, in the same setting: next, B19: 38 nM.
The same measure, in the same setting: to B20 belongs 7.94 nM.
